Measured values taken from patent US20040171537A1 (HOSPITAL FOR SICK CHILDREN, published 2004).
Each block holds one binder with its values, some of them ahead of it.

Experiments:
[1] = biological target: T1, c-Cbl (endogenous, Jurkat T-cell lysate) (human, UniProt P22681 1-906, tyrosine phosphorylated after anti-CD3 stimulation (sites not given)); test: GST pull-down from Jurkat T-cell lysates, anti-c-Cbl immunoblot
T1 construct: also called 120 kDa phosphoprotein

[2] = biological target: T1, c-Cbl (endogenous, Jurkat T-cell lysate); test: GST pull-down from unstimulated or anti-CD3 stimulated Jurkat lysates, anti-c-Cbl immunoblot
Procedure: Full-length MARS and MARS-v coding regions were fused in-frame to glutathione-S-transferase, in PGEX4T1. Recombinant GST fusion proteins were expressed in bacteria and purified on glutathione sepharose (GS) (Pharmacia). Jurkat T-cells (20×10⁶) were either left unstimulated (−) or stimulated with anti-CD3 (+); (anti-human CD3ε, clone UCGT1, Pharmingen) for 2 minutes. Cells were lysed in 1% NP-40 lysis buffer containing 1 mM sodium orthovanadate and complete protease inhibitors (Roche). Cell lysates were incubated with 4 μg of GS bound GST fusion proteins for 90 minutes at 4° C. and washed 4 times for 10 minutes with 0.1% NP-40 lysis buffer. Bound proteins were eluted by boiling in 2×SDS sample buffer and were resolved by SDS-PAGE on 10% polyacrylamide gels. Proteins were subsequently transferred to PVDF membrane (NEN) and blotted with anti-phosphotyrosine antibody (clone 4G10, UBI; top panel, FIG. 13). Membranes were stripped and reprobed with anti-c-Cbl antibody (Santa Cruz; middle panel, FIG. 13), and subsequently stained with Coomassie blue dye to check for equal loading of the respective fusions (bottom panel, FIG. 13).

binding result [1]: no binding
B1: GST-MARS delta-C (deletion of the carboxy-terminal 70 amino acids) (other, not shown: a dimerising Fc or GST; large carriers; small tags and cut ends)
chain: MGSLSSRGKTSSPSPSSSGPDQEPVSMQPERHKVTAVALGSFPAGEQARLSLRLGEPLTIISEDGDWWTVQSEVSGREYHMPSVYVAKVAHGWLYEGLSREKAEELLLLPGNPGGAFLIRESQTRRGCYSLSVRLSRPASWDRIRHYRIQRLDNGWLYISPRLTFPSLHALVEHYSELADGICCPLREP
modifications: N-terminal GST fusion from pGEX-4T1; GST letters are not given and are left out
notes: Residues 1-189 are worked out from the 259-residue entry; also called MARS AC mutant; C-terminal deletion mutant of MARS

B2: GST fusion of human MARS-v (MARS short isoform, splice variant) (other, not shown: a dimerising Fc or GST; large carriers; small tags and cut ends)
chain: MGSLPSRRKSLPSPSLSSSVQGQGPVTMEAERSKATAVALGSFPAGGPAELSLRLGEPLTIVSEDGDWWTVLSEVSGREYNIPSVHVAKVSHGWLYEGLSREKAEELLLLPGNPGGAFLIRESQTRRGSYSLSVRLSRPASWDRIRHYRIHCLDNGWLYISPRLTFPSLQALVDHYSEGWPAPWQGYTPTCDCAEDTTQLERAGQLPPVF
modifications: N-terminal GST fusion from pGEX-4T1; GST letters are not given and are left out
notes: The full-length MARS-v coding region (210 amino acids) was fused in-frame to GST; also called MARS-variant; MARS splice variant
binding result [2]: no binding (tested: 4 µg of GS bound GST fusion proteins)
